The text below walks through data of article PMC11617747 (Heliyon, 2024).

The data set “SEC” deals with the molecule itself. The data set is described as follows: SEC.
A further data set addresses T1, N-MabR (Mycobacterium tuberculosis, UniProt P9WPH5 1-160).
T1 sequence: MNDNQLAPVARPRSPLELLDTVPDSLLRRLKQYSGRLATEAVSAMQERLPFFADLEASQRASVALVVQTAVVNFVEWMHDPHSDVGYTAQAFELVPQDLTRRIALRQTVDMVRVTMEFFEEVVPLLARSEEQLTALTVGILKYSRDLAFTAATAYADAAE
The data set is described as follows: EMSA; up to 20 uM protein; […], room temperature 30 min; ITC: 50 mM Tris pH 7.5, 150 mM NaCl, 20 C. Conditions: protein: recombinant; tags: N-terminal 6xHis (pET28a); chain copies: 2; blunt. A general note: A gel shift assay detects complexes by their altered migration in electrophoresis.

The target in data set [1] is T2, C-MabR (Mycobacterium tuberculosis, UniProt P9WPH5 161-414).
T2 sequence: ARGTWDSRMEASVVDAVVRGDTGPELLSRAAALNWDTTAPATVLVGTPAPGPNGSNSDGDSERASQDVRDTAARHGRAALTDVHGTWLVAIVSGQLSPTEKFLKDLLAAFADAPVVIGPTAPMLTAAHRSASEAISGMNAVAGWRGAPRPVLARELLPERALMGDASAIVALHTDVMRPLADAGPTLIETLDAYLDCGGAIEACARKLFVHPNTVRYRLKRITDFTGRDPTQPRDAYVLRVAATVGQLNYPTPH
The data set is described as follows: ITC; 20 C; 50 mM Tris pH 7.5, 150 mM NaCl; […]; […], room temperature 30 min; ITC: 50 mM Tris pH 7.5, 150 mM NaCl, 20 C. The note with it: protein: recombinant; tags: N-terminal 6xHis (pET28a); chain copies: 2; blunt. For orientation: ITC needs no label: the signal is the heat of the interaction.

In data set [2] the target is T2, C-MabR. The data set is described as follows: TSA (isothermal analysis); 46 C, apparent; […], room temperature 30 min; ITC: 50 mM Tris pH 7.5, 150 mM NaCl, 20 C. The note with it: protein: recombinant; tags: N-terminal 6xHis (pET28a); chain copies: 2; blunt.
The data set “crystal structure” deals with the molecule itself. The data set is described as follows: crystal structure.

B1: N-terminal domain of Mycobacterium tuberculosis MabR (Rv2242), residues 1-160 (domain or fragment)
chain: T1 sequence
Regarding B1, the stoichiometry N – broadly, a count of units in the complex or per binding partner – in the data set “SEC” turned out to be 2.

B2: 23-bp FAS-II promoter dsDNA (dsDNA)
DNA 1: GTTTTGTTGGTTATATACAAAAA
DNA 2: TTTTTGTATATAACCAACAAAAC
As to B2, in the data set with N-MabR, the binding result was “no binding”. Also, the Kd is 4300 nM with C-MabR [1] and approximately 1000 nM with C-MabR [2].

B3: C-terminal domain of Mycobacterium tuberculosis MabR (Rv2242), residues 161-414 (domain or fragment)
chain: T2 sequence
For B3, in “crystal structure”, the binding result is reported as “binds”.
